Results reported in patent publication US20240092836A1.

Target: Recombinant Human CTLA4-Fc chimera (R&D systems) (human) (UniProt P16410)
Assay: ELISA, signal over SA

Binder | ELISA S/N(SA)
GGCLHPFLPIRSVHFCPF (peptide, not shown: large carriers; small tags and cut ends) [C4m#19-5th4w-NN6-15] | 39.9
GGCLHPFLPIRSVHFCGC (peptide, not shown: large carriers; small tags and cut ends) [C4m#19-5th4w-NN6-52] | 28.6
GGCWHPFLPIRSSHFCPS (peptide, not shown: large carriers; small tags and cut ends) [C4m#19-5th2w-NNS6-21] | 31.1
GGCFHPFLPIRSDHFCSR (peptide, not shown: large carriers; small tags and cut ends) [C4m#19-5th4w-NN6-34] | 32.2
GGCWHPYLPIVSWHFCSR (peptide, not shown: large carriers; small tags and cut ends) [C4m#19-5th4w-NN6-51] | 22.1
GGCLHPVLPIRSFHFCWR (peptide, not shown: large carriers; small tags and cut ends) [C4m#19-5th4w-NN6-87] | 21.4
GGCRHPWLPIVSWHFCSR (peptide, not shown: large carriers; small tags and cut ends) [C4m3127-4th-NNS6-87] | 21.4
GGCRHPHLPIWSWHFCGR (peptide, not shown: large carriers; small tags and cut ends) [C4m#19-5th4w-NN6-23] | 30.2
GGCRHPYLPIASPHFCPG (peptide, not shown: large carriers; small tags and cut ends) [C4n#19-5th2w-NNS6-71] | 22.9
GGCRHPFLPIWSHHFCVC (peptide, not shown: large carriers; small tags and cut ends) [C4m#19-5th4w-NN6-11] | 22.1
GGCWHPWLPILSPHFCPR (peptide, not shown: large carriers; small tags and cut ends) [C4m#19-5th4w-NN6-21] | 37.5
GGCFHPFLPIRSLHFCCR (peptide, not shown: large carriers; small tags and cut ends) [C4m#19-5th4w-NN6-82] | 28.3
GGCWHPFLPISSPHFCGR (peptide, not shown: large carriers; small tags and cut ends) [C4m#19-5th4w-NN6-65-1] | 29.5
GGCLHPFLPIRSVHFCPR (peptide, not shown: large carriers; small tags and cut ends) [C4m#19-5th4w-NN6-67] | 45.4
GGCLHPFLPISSWHFCGR (peptide, not shown: large carriers; small tags and cut ends) [C4m#19-5th4w-NN6-37] | 22.7
GGCMHPFLPIRSMHFCPL (peptide, not shown: large carriers; small tags and cut ends) [C4m#19-5th4w-NN6-70] | 35.5

Binder | ELISA S/N(SA)
GGCVHPSLPILSVHFCPR (peptide, not shown: large carriers; small tags and cut ends) [C4m#19-5th4w-NN6-55-4] | 29.5
GGCLHPWLPIRSRHFCSR (peptide, not shown: large carriers; small tags and cut ends) [C4m#19-5th4w-NN6-68] | 24.7
GGCRHPFLPIVSWHFCGR (peptide, not shown: large carriers; small tags and cut ends) [C4m#19-5th4w-NN6-44] | 30.1
GGCKHPVLPIWSWHFCRI (peptide, not shown: large carriers; small tags and cut ends) [C4m#19-5th4w-NN6-50] | 28.1
GGCMHPFLPIQSVHFCSR (peptide, not shown: large carriers; small tags and cut ends) [C4m#19-5th2w-NNS6-22] | 29.3
GGCWHPFLPIFSVHFCGC (peptide, not shown: large carriers; small tags and cut ends) [C4m#19-5th4w-NN6-85] | 22.9
GGCWHPFLPIRSLHFCPR (peptide, not shown: large carriers; small tags and cut ends) [C4m#19-5th4w-NN6-39] | 35.6
GGCRHPYLPIWSIHFCQK (peptide, not shown: large carriers; small tags and cut ends) [C4m#19-5th4w-NN6-19] | 29.7
GGCFHPYLPISSVHFCGR (peptide, not shown: large carriers; small tags and cut ends) [C4m#19-5th2w-NNS6-94] | 22.4
GGCWHPFLPIRSYHFCPW (peptide, not shown: large carriers; small tags and cut ends) [C4m#19-5th2w-NNS6-14] | 34.7
GGCRHPFLPIVSTHFCSR (peptide, not shown: large carriers; small tags and cut ends) [C4m#19-5th4w-NN6-77] | 30.5
GGCLHPGLPIRSLHFCPR (peptide, not shown: large carriers; small tags and cut ends) [C4m#19-5th4w-NN6-54] | 33.3
GGCLHPVLPIRSRHFCPV (peptide, not shown: large carriers; small tags and cut ends) [C4m#19-5th4w-NN6-25] | 38.9
GGCLHPHLPIWSLHFCPL (peptide, not shown: large carriers; small tags and cut ends) [C4m#19-5th4w-NN6-59] | 27.6
GGCLHPFLPIFSSHFCAL (peptide, not shown: large carriers; small tags and cut ends) [C4m3127-4th-NNS6-28] | 23.2

Second part, the binder after the results:

ELISA S/N(SA) | Binder
27.7 | GGCMHPYLPIVSVHFCPC (peptide, not shown: large carriers; small tags and cut ends) [C4m#19-5th4w-NN6-57]
27.2 | GGCPHPFLPIWSVHFCPF (peptide, not shown: large carriers; small tags and cut ends) [C4m#19-5th4w-NN6-32]
31.6 | GGCRHPYLPIVSRHFCPF (peptide, not shown: large carriers; small tags and cut ends) [C4m#19-5th4w-NN6-4]
24.9 | GGCWHPVLPIRSCHFCAV (peptide, not shown: large carriers; small tags and cut ends) [C4m#19-5th4w-NN6-79]
27.9 | GGCWHPALPIRSWHFCPR (peptide, not shown: large carriers; small tags and cut ends) [C4m#19-5th4w-NN6-78]
28.9 | GGCCHPWLPIVSTHFCGL (peptide, not shown: large carriers; small tags and cut ends) [C4m#19-5th4w-NN6-93]
30.6 | GGCSHPQLPILSDHFCSA (peptide, not shown: large carriers; small tags and cut ends) [C4m#19-5th4w-NN6-20]
32.3 | GGCFHPYLPIRSWHFCSR (peptide, not shown: large carriers; small tags and cut ends) [C4m#19-5th4w-NN6-81]
32.2 | GGCRHPFLPIYSVHFCAC (peptide, not shown: large carriers; small tags and cut ends) [C4m#19-5th4w-NN6-53]
30 | GGCVHPFLPIRSVHFCAL (peptide, not shown: large carriers; small tags and cut ends) [C4m#19-5th4w-NN6-92-1]
27.6 | GGCWHPWLPIYSHHFCPI (peptide, not shown: large carriers; small tags and cut ends) [C4m#19-5th4w-NN6-24]
28.3 | GGCMHPYLPIKSVHFCPL (peptide, not shown: large carriers; small tags and cut ends) [C4m#19-5th2w-NNS6-55]
28.8 | GGCFHPYLPIRSWHFCGR (peptide, not shown: large carriers; small tags and cut ends) [C4m#19-5th4w-NN6-9]
24.9 | GGCSHPFLPILSVHFCPF (peptide, not shown: large carriers; small tags and cut ends) [C4m#19-5th4w-NN6-69-1]
24.9 | GGCLHPWLPIVSVHFCAR (peptide, not shown: large carriers; small tags and cut ends) [C4m#19-5th4w-NN6-69-3]
25.5 | GGCQHPWLPISSWHFCPR (peptide, not shown: large carriers; small tags and cut ends) [C4m#19-5th2w-NNS6-67]
27.1 | GGCWHPFLPIQSLHFCGV (peptide, not shown: large carriers; small tags and cut ends) [C4m#19-5th4w-NN6-56]
22.9 | GGCKHPVLPIVSLHFCPW (peptide, not shown: large carriers; small tags and cut ends) [C4m3127-4th-NNS6-90]
23 | GGCRHPFLPIWSWHFCPF (peptide, not shown: large carriers; small tags and cut ends) [C4m#19-5th4w-NN6-7]
34.2 | GGCPHPWLPIFSRHFCPV (peptide, not shown: large carriers; small tags and cut ends) [C4m#19-5th4w-NN6-47]
